According to the supplement of paper PMC10567573:
± gives the standard deviation.

Assay: protein stability index of a GFP-peptide fusion (GPS, HEK-293T) (PSI 1-6); higher = more stable
[1] = treatment: DMSO, c terminus: a fixed tail appended
[2] = treatment: MLN4924 1 uM, 8 h, c terminus: a fixed tail appended
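Note: 24-mer peptide tiles fused after GFP, lentivirally expressed, FACS-sorted into six equal bins by GFP/DsRed ratio, decoded by Illumina sequencing, PSI is the read-weighted mean bin number.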

Row | Sequence | protein stability index [1] | protein stability index [2] | protein stability index (treatment: DMSO, c terminus: native) | protein stability index (treatment: MLN4924 1 uM, 8 h, c terminus: native)
1 | LSVGQYNCPGQYTFSMPSDSHVSS [CD69] | 3.05 ± 0.28 | 3.07 ± 0.27 | – | –
2 | HNLVVACEIQVRTLASAGGPDNLV [ADD1] | 2.51 ± 0.51 | 2.38 ± 0.52 | – | –
3 | AVLGFPGFSSGRHRWQVDLQLGDG [TRIM15] | 2.18 ± 0.069 | 2.22 ± 0.17 | – | –
4 | RLATVHMSRMINKYKRRRFQKTKN [CLPTM1] | 3.16 ± 0.36 | 3.54 ± 0.49 | – | –
5 | LKPHLEGAAFRDHQLLEPIRDFEA [TRIM29] | 3.88 ± 0.31 | 4.26 ± 0.25 | – | –
6 | MNGHQNGLDSPPLYPSAPILGGSG [ESRRG] | 3.91 ± 0.25 | 3.93 ± 0.3 | – | –
7 | LAIDFIDEGRLLLEFDLLIFSFGQ [SOAT2] | 3.35 ± 0.39 | 2.78 ± 0.57 | – | –
8 | VWNMTATRPKKMGSQLPKPRMLRE [FATE1] | 2.94 ± 0.24 | 3 ± 0.12 | – | –
9 | ALRSHLKSFSMANGLNARMMHGGS [RAB40B] | 2.71 ± 0.38 | 2.5 ± 0.62 | – | –
10 | GYPVSSAFAFQNTFPHSISAKNTS [SASS6] | 3.19 ± 0.43 | 3.37 ± 0.21 | – | –
11 | SEIKNLERYMCSRFFIDFPHIEEQ [TENT5D] | 2.42 ± 0.15 | 2.22 ± 0.35 | – | –
12 | PGRSALIVAVLCYINLLNYMDRFT [SPNS1] | 2.81 ± 0.88 | 3.44 ± 0.31 | – | –
13 | QAQMIHPKPADFRNPGPGRHRLIT [INTS4] | 3.94 ± 0.26 | 3.92 ± 0.24 | – | –
14 | LGYAASLEASVQDDAGTSGGPSSP [C2CD2L] | 5.45 ± 0.34 | 5.53 ± 0.22 | – | –
15 | TCGVCALELGSTEVLLDHLKAHAE [PLAGL1] | 2.78 ± 0.46 | 2.78 ± 0.42 | – | –
16 | APTKPHDYRQEQPETFWIQRAPQL [SPAG8] | 3.61 ± 0.11 | 3.73 ± 0.19 | – | –
17 | LGSVQFMEQFCWPHLRSFCETCVG | 2.39 ± 0.29 | 2.21 ± 0.41 | – | –
18 | RTTKPMAQRSAHCSRPSGSSSSSG [CSNK1G1] | 4.39 ± 0.18 | 4.43 ± 0.2 | – | –
19 | SAAGHLDVVRSLLRRGASVNRTTR [FEM1A] | 3.5 ± 0.33 | 3.75 ± 0.33 | – | –
20 | QKKIESYLHNHFIGEGMTKYDYLM [TENT5D] | 2.13 ± 0.45 | 2.18 ± 0.27 | – | –
21 | TCEDDEDEELGGSSRVPVGGGPEA [ZBTB22] | 5.49 ± 0.14 | 5.38 ± 0.61 | – | –
22 | TNLTWDQVITLDQVLDEVIPIHGK [TENT5D] | 2.47 ± 0.16 | 2.61 ± 0.3 | – | –
23 | VCVGSDVTSIHKYMVRRYFNKPSR [MYORG] | 2.37 ± 0.2 | 2.34 ± 0.18 | – | –

Row | Sequence | protein stability index [1] | protein stability index [2] | protein stability index (treatment: DMSO, c terminus: native) | protein stability index (treatment: MLN4924 1 uM, 8 h, c terminus: native)
24 | MTEPWLALGTSWTLPLQDRELGPE [CABP4] | 3.54 ± 0.39 | 4.16 ± 0.2 | – | –
25 | IVVSLQSKLASMSNDFKSVLEVRT [STX5] | 2.7 ± 0.65 | 2.64 ± 0.72 | – | –
26 | GYLDYRKKAIKDLGISPSTCSFNP [GLT8D2] | 2.85 ± 0.22 | 2.89 ± 0.34 | – | –
27 | VYSWPKNKKNILLRLLREEEYVAP [TRAF3IP2] | 2.11 ± 0.68 | 2.5 ± 0.59 | – | –
28 | VLGGRRLRRAWFSWPRASPASGAS [SCNN1D] | 2.89 ± 0.35 | 2.86 ± 0.39 | – | –
29 | VDNISTLDSEIKKNSDGMEAAGVQ [CD207] | 5.4 ± 0.37 | 5.49 ± 0.23 | – | –
30 | SVDDIESETGSTGALETRSLKDHK [C2CD2L] | 5.52 ± 0.3 | 5.43 ± 0.27 | – | –
31 | FKLFFNGRPGIVAWTLINLSFAAK [DHCR7] | 3.03 ± 0.28 | 2.46 ± 0.31 | – | –
32 | DLPKAKTRAADLLVNPLDPRNADK [SRPK2] | 4.85 ± 0.24 | 5 ± 0.29 | – | –
33 | AEEYDEKTSELLVRKWRVKSALGA [DPCD] | 3.34 ± 0.36 | 4.04 ± 0.29 | – | –
34 | AYFPYFKKHNVTAVVRLNKKIYEA [CDC14A] | 2.34 ± 0.33 | 2.08 ± 0.16 | – | –
35 | LRHLSPTPSEEHMKNKNNVTEFIL [OR4A15] | 3.27 ± 0.18 | 3.36 ± 0.12 | – | –
36 | SELERLIVPNSNGVITTTPTPPGQ [JUNB] | 4.65 ± 0.16 | 4.75 ± 0.097 | – | –
37 | EHLEILQKEDVKPYQVNGVNPAYP [ETS1] | 4.1 ± 0.11 | 4.05 ± 0.28 | – | –
38 | GHGEPDVLKDELQLYGDAPGEVVP [TMEM40] | 5.36 ± 0.07 | 5.35 ± 0.23 | – | –
39 | FLENLDKSRKGELLKKSDLQKDF [PRIM1] | – | – | 4.7 ± 0.24 | 5.154 ± 0.05
40 | QGHPQTGCECEDGPDGQEMDPPNP [GAGE1] | 5.39 ± 0.33 | 5.67 ± 0.14 | – | –
41 | PAPALAPDQLPQNNTLVALPIVAI [FBXO28] | 2.91 ± 0.23 | 2.68 ± 0.33 | – | –
42 | PESPGGTTTLEGSPSVPCIFCEEH [ZNF277] | 4.82 ± 0.3 | 4.82 ± 0.16 | – | –
43 | TSVEEESFGPQPISRLEQCGINAN [RAD51] | 4.63 ± 0.39 | 4.63 ± 0.18 | – | –
44 | NEKITMQNLNDRLASYLEKVRALE [KRT13] | 2.86 ± 0.4 | 3 ± 0.32 | – | –
45 | EPNTFSPANVDASVMYRKWKESKG [CDC34] | 4.69 ± 0.15 | 4.59 ± 0.17 | – | –
46 | DYSPYFKTIEDLRNKIIAATIENA [KRT16] | 2.33 ± 0.22 | 2.44 ± 0.42 | – | –

Row | Sequence | protein stability index [1] | protein stability index [2] | protein stability index (treatment: DMSO, c terminus: native) | protein stability index (treatment: MLN4924 1 uM, 8 h, c terminus: native)
47 | GRAENGERSDLEEDNEREGTENGA [ZC3H15] | 5.57 ± 0.068 | 5.57 ± 0.16 | – | –
48 | GHSPARAGKQRMKEKEQENERKVA [DDIT3] | 5.39 ± 0.4 | 5.43 ± 0.37 | – | –
49 | DFLCLLGVSYTFDNEDSELNGDYG [MIA2] | 2.24 ± 0.39 | 2.34 ± 0.44 | – | –
50 | IQHRRTHTDSKYEHAIAEAQKNMY [ZNF396] | 3.78 ± 0.27 | 3.96 ± 0.21 | – | –
51 | AFLGPDEAFALPDSLLVVLDMDEG [SPSB4] | 2.45 ± 0.39 | 2.6 ± 0.38 | – | –
52 | ALFAQVQRGALPAPDPELAAEMYQ [RSAD1] | 3.69 ± 0.087 | 3.78 ± 0.34 | – | –
53 | LPERRGTCADRDNLTRRFSDLGFE [CASP6] | 3.16 ± 0.21 | 3.09 ± 0.086 | – | –
54 | SPDSSMLCSVGASKAVFLWNMDKY [WSB1] | 2.35 ± 0.42 | 2.35 ± 0.26 | – | –
55 | ARVNENLARKIASRNEFDRTIAET [SSNA1] | 3.95 ± 0.15 | 4.06 ± 0.2 | – | –
56 | MKGRGQLEKPPAPNQAMVVAAAGD [TBC1D10A] | 5 ± 0.26 | 4.94 ± 0.49 | – | –
57 | INDNAPTFQSSVLRVGIPENAPIG [PCDHGC5] | 3.99 ± 0.066 | 4.18 ± 0.19 | – | –
58 | MHDAFEPVPILEKLPLQIDCLAAW [VPS39] | 2.56 ± 0.34 | 2.56 ± 0.27 | – | –
59 | PAHRFVLAAGSAVFDAMFNGGMAT [BTBD1] | 2.49 ± 0.85 | 2.24 ± 0.55 | – | –
60 | LTPLELLLRQLGRDAGATPSAAGA [ANKRD9] | 2.42 ± 0.16 | 2.58 ± 0.23 | – | –
61 | TYRIRIEMSKDALPEKACQLDSRY [FBXO3] | 2.37 ± 0.12 | 2.57 ± 0.35 | – | –
62 | KTHSQELMKESLQTGDLLSTFHTI [PLAGL1] | 3.49 ± 0.27 | 3.64 ± 0.23 | – | –
63 | GRPIPGTSTRYEQPKCDNTARAHP [SMOC2] | 4.76 ± 0.4 | 4.78 ± 0.18 | – | –
64 | MEVQHFRTIYHMFIAGLCVFIIST [SOAT2] | 2.95 ± 0.27 | 3.18 ± 0.52 | – | –
65 | LKSDLEKASALNTKIRALQGSLEN [CD207] | 3.91 ± 0.26 | 3.73 ± 0.66 | – | –
66 | STMTSSVQIYNLSQNIQEDDLQQL [ATL3] | 4.45 ± 0.13 | 4.57 ± 0.31 | – | –
67 | LQRVLQNCPWPMSCPGSSYRTVVR [EMID1] | 2.49 ± 0.27 | 2.74 ± 0.74 | – | –
68 | REPQEDSQKDLENDPSVNSQAQET [TOR1AIP2] | 5.68 ± 0.15 | 5.61 ± 0.2 | – | –
69 | VKQEEDIKPPPPLVLNSQQSDTLE [RAD54B] | 5.42 ± 0.22 | 5.39 ± 0.33 | – | –

Row | Sequence | protein stability index [1] | protein stability index [2] | protein stability index (treatment: DMSO, c terminus: native) | protein stability index (treatment: MLN4924 1 uM, 8 h, c terminus: native)
70 | QSSLLETLYRNRSNLETIFRIIDS [PPEF2] | 2.17 ± 0.25 | 2.15 ± 0.1 | – | –
71 | DQNNVIENEETGEFSIDNYPTDNT [MIA2] | 5.21 ± 0.74 | 5.5 ± 0.17 | – | –
72 | DPLSDSDSMTSQAKPEALSSPKFR [ELOA2] | 5.2 ± 0.23 | 5.27 ± 0.17 | – | –
73 | TTPPGHGTLDNSKSMKPYNYCSAY [NEUROD6] | 3.27 ± 0.18 | 3.25 ± 0.17 | – | –
74 | KERILLVTDKTLLICKYDFIMLSC [TPRG1] | 3.06 ± 0.42 | 2.61 ± 0.31 | – | –
75 | HSDMAAIVKAMASPESGLEVRDRM [DVL3] | 3.81 ± 0.23 | 3.81 ± 0.03 | – | –
76 | LLFINHRLVESTSLRKAIETVYAA [MLH1] | 2.2 ± 0.24 | – | – | –
77 | ISNGDFESYTKMCDPGMTAFEPEA [CAMK2A] | 4.48 ± 0.18 | 4.66 ± 0.25 | – | –
78 | FFKGIDQDIERGVQSEIFLHESYC [LYSMD4] | 2.58 ± 0.27 | 2.35 ± 0.19 | – | –
79 | PSPMPTHRSYLGPGSTSPLETSGN [SLC6A17] | 4.13 ± 0.29 | 4.47 ± 0.26 | – | –
80 | ENPETDLHVNPKKQTIGNSCKACG [EIF5] | 4.44 ± 0.39 | 4.66 ± 1.2 | – | –
81 | KKTGKSSTTALGDKQRKANESKGT [ELOA2] | 5.26 ± 0.36 | 5.22 ± 0.17 | – | –
82 | CLGSLASKLSRKYVKAKKSIDKDE [FAN1] | 2.7 ± 0.16 | 2.94 ± 0.4 | – | –
83 | GPVQVVLVQKDQHSFELDEKALAS [ATL3] | 3.65 ± 0.18 | 4.06 ± 0.2 | – | –
84 | PAVATLCDLFDREIVVTISWAKSI [ESRRA] | 2.65 ± 0.56 | 3.36 ± 0.85 | – | –
85 | KVLQGGEQEIQFEDFTNTLRELGH [PKD2L1] | 3.08 ± 0.35 | 3.31 ± 0.23 | – | –
86 | NRELWKEFSSVGTEMIITKAGRRM [TBX6] | 2.88 ± 0.27 | 3.21 ± 0.4 | – | –
87 | VKDEAHQAQKDPKKDRPLARRKSE [PPP2R5C] | 5.55 ± 0.25 | 5.43 ± 0.22 | – | –
88 | WSSRSPQERSRVLNQVADLLEQSL [ALDH8A1] | 2.8 ± 0.12 | 3.08 ± 0.54 | – | –
89 | QKILCSKSENARLVVQIDNAKLAA [KRT33B] | 3.21 ± 0.27 | 3.33 ± 0.26 | – | –
